Experiments:
[1] = tested on: various human cancer cell lines; test: Killing of cancer cells in vitro (% cell growth); assay type: cell-based; conditions: various amounts, about 48 hours
Experimental: FIG. 20 depicts the effects of synthetic hEB-peptide on killing of various human cancer cells. About 1×10^6 cells of cancer cells were seeded in each well of a 96-well plate and various amounts of synthetic hEb-peptide were added as indicated. The cells were cultured for about 48 hours and the % of cell growth was determined.
About 1×10^6 cells of various human cancer cell lines were seeded in each well of a 96-well culture plate with various amounts of synthetic human Eb-peptide (shEb-peptide). It is specifically contemplated by the inventors that in any of the examples of the preferred embodiments described herein, synthetic or recombinant E domain peptides can be used. After incubation for about 48 hours, the growth of cells in each well was determined and compared to non-hEb-peptide controls.

[2] = tested on: SK-N-F1 neuroblastoma cells; test: Neurite-like process outgrowth / morphological differentiation; assay type: cell-based, human; conditions: 2 h
[3] = tested on: 293GP or ZR-75-1 cells; test: Morphological change by Ea-2, Ea-3, Ea-4 peptides; assay type: cell-based, human; conditions: 0.8 μM, 24 hours
Experimental: Approximately 1-2×10^5 of MCF-7, ZR-75-1, HT-29, HepG2, 293GP, HC or SK-N-F1 cells re-suspended in their respective basal medium without fetal bovine serum (FBS) were plated in a 6-well culture chamber. Prior to plating cells, an acid-washed coverslip was placed in each well of the culture chamber. Recombinant rainbow trout E-peptides (rtEa-2, rtEa-3 or rtEa-4 peptide at 0.8 µM), human IGF-I (hIGF-1, 2.5 nM) or the same amount of control protein was added to each well and the cell cultures were incubated at 37° C. under a humidified atmosphere of 5% CO2. The control protein was prepared from E. coli cells carrying the expression plasmid but without the E-peptide gene according to the purification method described by Tian et al. (1999). Coverslips were removed from the culture chamber 24 hours after initiation of the treatment and observed under an Olympic inverted microscope equipped with differential interference phase contrast objective lenses or phase contrast objective lens (final magnification, 200×). The morphological change assay was performed at least 10 times with different batches of Ea-4 peptide preparations.
Cells were again cultured as described above. Twenty-four hours after treatment with 0.8 µM of E-peptides or the control protein, the cells were observed under an Olympic inverted microscope equipped with differential interference phase contrast objective lenses (200× magnification). […] To confirm this hypothesis, synthetic peptides specific to Ea-1-, Ea-2-, Ea-3- and Ea-4-peptide (Ea-1sp, Ea-2sp, Ea-3sp and Ea-4sp) specific sequence (see FIG. 1) were prepared and tested for their activities to induce morphological change in ZR-75-1 cells. For FIG. 6, cells were cultured in F12/DME medium without FBS as described above. Twenty-four hours after treatment with 0.8 µM of synthetic peptide containing Ea-1 sp, Ea-2sp, Ea-3sp or Ea-4sp specific sequence or the control protein, the cells were observed under an Olympic inverted microscope equipped with differential interference phase contrast objective lenses (200× magnification).

[4] = tested on: 293GP cells; test: Cell attachment assay; assay type: cell-based, human; conditions: 0.8 μM, serum-free medium, four days, after shaking
Experimental: To confirm whether treatment of transformed cells with the Ea-4 peptide could result in increased attachment of the cells to the culture dish, 293GP cells were cultured in a serum-free basal medium supplemented with Ea-4-peptide (0.8 µM) or 10% FBS, respectively, in 6-well culture chambers. After four days, the culture medium was removed, and cells were rinsed twice with PBS containing 0.02% EDTA, fresh PBS was added, and the culture plates shaken 20 times manually.

[5] = tested on: ZR75-1 and MDA-MB 231 cell lines (single-cell clones); test: Morphological change in single-cell malignant clones; assay type: cell-based, human
Experimental: Because each of these tumor cell lines obtained from ATCC contains a mixed population of tumorous and nontumorous cells, only between 25-40% of the cells from each cell line responded to induction by rtEa-4-peptide. […] About 1 -2×10^5 cells resuspended in their respective basal medium without FBS were plated in a 6-well culture chamber. Different amounts of trout Ea-4-peptide (0.4 µM, 0.8 µM and 1.6 µM) or control protein (1.6 µM) were added to the wells, and the cell cultures were incubated at 37° C. under a humidified atmosphere of 5% CO2. Twenty-four hours after initiation of the treatment, cells were observed under an Olympic inverted microscope equipped with phase contrast objective lenses (200× magnification).

[6] = tested on: MDA-MB-231 cells; test: Soft agar colony formation of Ea-4 cDNA transfectants; assay type: cell-based, human; conditions: cells transfected with Ea-4-peptide cDNA (clones E9 and E15)
From the text: Two gene constructs, CMV-IGF-1-sp-Ea-4-cDNA-IRES-EGFP and CMV-IRES-EGFP were used in the transfection studies. The first construct (FIG. 9A) contained Ea-4 peptide cDNA (with a signal peptide sequence derived from hlGF-I), a ribosome re-entry site (IRES) and an enhanced green fluorescence protein (EGFP) marker gene. […] The expression of both gene constructs was driven by a promoter from CMV. Vectors containing the recognized control sequences and marker gene are available from commercial sources (CLONTECH, Palo Alto, Calif.).
Transfection of the cells was accomplished as follows. MDA-MB-231 cells were cultured in F12/DMEM supplemented with 10% FBS and 10 ng/ml of insulin to 90% confluence. About 5×10^6 cells were harvested and resuspended in 1 mL of serum-free F12/DMEM containing 20 µg of un-linearized constructs. The cells were electroporated in a BRL Cell-Porator using the following settings: low .OMEGA., 1180 micro Faraday (µF) capacitance, and two pulses at 200 volts. Following electroporation, cells were resuspended in 12 mL of fresh growth medium and seeded into a 6-well plate to recover. Permanent transfectants expressing green fluorescence protein (GFP) were enriched in a medium containing neomycin (G418) at 1 mg/mL for ten days and followed with 500 µg/mL for continuous maintenance. […]

| Molecule | killing of cancer cells [1] | Neurite length ([2]; 0.4 μM) | Neurite length ([2]; 1.6 μM) | Neurite length ([2]; 3.2 μM) | induction of morphological change [3] | attachment of cells to the culture chamber [4] | extent of the morphological change ([5]; 0.4 to 1.6 μM) | cells responsive to treatment ([5]; purified single-cell clones, 0.4-1.6 μM, 24 hours) | colony formation activity [6] |
| --- | --- | --- | --- | --- | --- | --- | --- | --- | --- |
| hEb: chemically synthesized human Eb peptide of pro-IGF-I, 77 amino acid residues (SEQ ID NO:1) (peptide, listed as Homo sapiens) RSVRAQRHTDMPKTQKYQPPSTNKNTKSQRRKGWPKTHPGGEQKEGTEASLQIRGKKKEQRREIGSRNAECRGKKGK | different degrees of killing | 30 ± 1.6 μm | 33 ± 3.8 μm | 33 ± 2.8 μm | – | – | – | – | – |
| rtEa-4: recombinant Ea-4 peptide of rainbow trout pro-IGF-I, 74 amino acid residues (SEQ ID NO: 2) (protein, Oncorhynchus mykiss) RSVRAQRHTDMPRTPKVSTAVQNVDRGTERRTAQHPDKTKTKKKPLSGHSHPSCKEVHQKNSSRGNTGGRNYRM | – | – | – | – | able to induce morphological change | remained attached to the culture chamber | proportional to the amounts | ~95% | abolished |
